In patent US9096681B2, “XBP1, CD138, and CS1 peptides” (Dana-Farber Cancer Institute, Inc., priority 2008, dated 2015):

Assays:
[1] = test system: CD3+ T lymphocytes from normal HLA-A2+ donors; experiment: Phenotypic analysis of peptide-stimulated T cells (flow cytometry); assay type: cell-based, human; settings: after peptide stimulation; for percentage of CD8+ T cells: unstimulated cultures 33%; for percentage of CD4+ T cells: unstimulated cultures 64%
Protocol: Peptide-specific CTL (that is, XBP1, CD138, or CS1-peptide-specific CTL) were generated ex vivo by repeated stimulation of CD3^+ T lymphocytes obtained from normal HLA-A2^+ donors with XBP1, CD138, or CS1-peptide-pulsed antigen-presenting cells (APC), either T2 cells or mDC. In brief, T2 cells were washed and resuspended in serum-free AIM-V medium (Gibco BRL) and pulsed overnight at 37° C. with 50 μg/ml of the appropriate XBP1 or CD138 peptide. Peptide-pulsed APC were washed, counted, irradiated at 10 Gy and used to prime CD3^+ T cells at a 1:40 T2/peptide (stimulator)-to-CD3^+ T cell (responder) ratio in AIM-V medium supplemented with 10% human AB serum (BioWhittaker, Walkersville, Md.). The T cell cultures were restimulated every seven days with irradiated APC/peptide for a total of 4 cycles to generate XBP1 peptide-specific CTL (XBP1-CTL), CD138 peptide-specific CTL (CD138-CTL), or CS1 peptide-specific CTL (CS1-CTL). It is clear from the foregoing that “XBP1-CTL,” “CD138-CTL,” and “CS1-CTL” referred to herein are not clonal (or homogenous) populations. Rather, the XBP1-CTL, CD138-CTL, and CS1-CTL cells are heterogenous populations of lymphocytes comprising XBP1 peptide-, CD138 peptide-, or CS1 peptide-specific CTL along with non-specific CTL, APCs, and other lymphocytes obtained from the normal donors. 50 U/ml of interleukin-2 (IL-2) was added to the cultures two days after the second stimulation. Control T cell cultures (unstimulated with peptide) were maintained in AIM-V medium supplemented with 10% human AB serum containing 50 U/ml IL-2.
To determine the phenotype of the XBP1-CTL, CD4, or CD8 expression by the cells was detected using anti-CD4-PE or anti-CD8-FITC mouse anti-human mAbs. In addition, a variety of other expression markers were detected on the cells using combinations of either FITC-conjugated anti-CD69/PE-conjugated-anti-CD45RO or FITC-conjugated anti-CD45RA-FITC/PE-conjugated anti-CCR7 mouse anti-human mAbs. Alternatively, HLA-A2 expression by U266, McCAR, ML-2 and MM1S cells was determined using an FITC-conjugated anti-HLA-A2 anti-human mAb. After contacting the cells with antibodies for 15 minutes at 4° C., the cells were washed and analyzed using a FACSort™ flow cytometer with CellQuest v2.1 software (Becton Dickinson).
Cytotoxic T lymphocytes (CTL) are defined phenotypically by the expression of distinct cell surface antigens (e.g., CD8). Cell surface antigens can also be used to further define CTL as naïve or activated memory cells. For example, naïve humanCTL can be identified by the presence of CD45RA^+/CCR7^+, whereas activated human memory cells can be identified as CD69^+/CD45RO^+. Flow cytometry was performed on populations of human T cells stimulated with the heteroclitic peptides to determine the percentage of CTL that were naïve or activated memory cells. […] The unstimulated control T cells or CD138-CTL were further examined for naïve (CD45RA^+/CCR7^+) or activated memory (CD69^+/CD45RO^+) cell status.

[2] = molecular target: T1, HLA-A2 molecules on the surface of human T2 cells (Homo sapiens, UniProt P04439, D140Y/D185E/D98H/E176V/E277Q/G131W/G231S/I119V/I121R/I166T/I218V/L300P/L318F/N151K/N90K/P208A/P217A/Q86G/Q94H/R138H/R169H/T345S); assay type: binding; settings: non-spliced XBP1 peptides (FIG. 1), 50 μg/ml peptide (30 μg/ml influenza peptide), overnight
CD8+ T cells = experiment: Expansion of P2 peptide-specific CS1-CTL (HLA-A*0201 P2-tetramer / anti-CD8 flow analysis); assay type: cell-based, human; settings: after the fourth re-stimulation with peptide-presenting dendritic cells
[3] = molecular target: T1, HLA-A2 molecules on the surface of human T2 cells; experiment: Peptide stability assay (peptide/HLA-A2 binding stability post-Brefeldin A); settings: for HLA-A2 binding stability (HLA-A2 up-regulation on T2 cells) versus native counterpart: spliced XBP1 heteroclitic peptides (FIG. 4)
McCAR cells = experiment: CTL proliferation by CFSE tracking, stimulation with McCAR cells; assay type: cell-based, human; settings: cultured with McCAR cells, day 4
Protocol: XBP1-CTL or CD138-CTL were washed twice in PBS (Gibco-BRL) and resuspended in RPMI-1640 culture medium at a concentration of 1×10^6 cells/ml. CFSE (Molecular Probes, Eugene, Oreg.) in the form of a 5 mM stock solution in DMSO was added to the CTL to give a final concentration of 5 μM and incubated for 10 minutes at 37° C. in a CO2 incubator protected from light. After incubation, a volume of ice-cold PBS (containing 2% FCS) equivalent to five-times the volume of the CTL cells was added to the cells to quench the reaction. Cells were incubated for 5 minutes on ice, centrifuged and resuspended in fresh PBS (containing 2% FCS) after a total of three washings. CFSE-labeled T cells were adjusted to a concentration of 2×10^6 cells/ml with RPMI culture medium, stimulated with 2×10^5 cells/ml McCAR cells, ML-2 cells, MM1S cells, or no cells. The stimulated CFSE-labeled cells were examined on by FFC analysis day 4.
XBP1-CTL were exposed to carboxyfluoroscein succinimidyl ester (CFSE) as described above. Proliferation of the XBP1-CTL in response to stimulation with various tumor lines was determined by measuring the amount of CFSE in the cells. CFSE is a membrane permeable dye, which is taken up by cells. […] Thus, the number of cell divisions can be determined as the inverse of the concentration of dye in each cell of a population.

Sequence: GLVGLIFAV (listed as Homo sapiens) [CD138 #2p, native CD138 peptide]
- percentage of CD8+ T cells [1]: 82%
- percentage of CD4+ T cells [1]: 15%

Sequence: ILAVLTLQI (listed as Homo sapiens) [XBP1189-197, native non-spliced XBP1 peptide]
- affinity for HLA-A2, HLA-A2-mean fluorescence intensity (MFI) [2]: significant affinity for HLA-A2 affinity, although less than that of XBP1184-192

Sequence: KLLLENQLL (listed as Homo sapiens) [XBP1110-118, native non-spliced XBP1 peptide]
- affinity for HLA-A2, HLA-A2-mean fluorescence intensity (MFI) [2]: significant affinity for HLA-A2 affinity, although less than that of XBP1184-192

Sequence: LLREKTHGL (listed as Homo sapiens) [XBP1117-125, native non-spliced XBP1 peptide]
- affinity for HLA-A2, HLA-A2-mean fluorescence intensity (MFI) [2]: significant affinity for HLA-A2 affinity, although less than that of XBP1184-192

Sequence: RMSELEQQV (listed as Homo sapiens) [XBP193-101, native non-spliced XBP1 peptide]
- affinity for HLA-A2, HLA-A2-mean fluorescence intensity (MFI) [2]: significant affinity for HLA-A2 affinity, although less than that of XBP1184-192

Sequence: SLFVLGLFL (listed as Homo sapiens) [P2, native CS1 peptide]
- percentage of cells bound by both HLA-A*0201 P2-tetramer and anti-CD8 antibody (CD8+ T cells): Approximately 4.1%

Sequence: VLTLQIQSL (ILAVLTLQI; listed as Homo sapiens) [XBP1192-200, native non-spliced XBP1 peptide]
- affinity for HLA-A2, HLA-A2-mean fluorescence intensity (MFI) [2]: significant affinity for HLA-A2 affinity, although less than that of XBP1184-192

Sequence: YILDNLDPV (listed as Influenza virus) [heteroclitic peptide derived from native spliced XBP1 #1p]
- HLA-A2 binding stability (HLA-A2 up-regulation on T2 cells) versus native counterpart [3]: did not exhibit a significant increase in HLA-A2 stability over its native counterpart

Sequence: YLFPQLISV (listed as Homo sapiens) [SP XBP1 #3M, heteroclitic spliced XBP1 367-375 peptide]
- time for which higher level of HLA-A2 up-regulation was maintained ([3]; in Brefeldin A after removing unbound peptide (FIG. 4)): 6 h
- HLA-A2 binding stability (HLA-A2 up-regulation on T2 cells) versus native counterpart [3]: increase in HLA-A2 up-regulation on T2 cells
- percentage of CD69+/CD45RO+ (activated memory) cells ([1]; control T cells 4%): 64%
- percentage of CD8+ T cells [1]: 75%
- percentage of CD4+ T cells [1]: 18%
- CTL proliferation (M1 gated, CFSE) (McCAR cells): 42%
